Test results taken from patent US20110105397A1, “METHOD FOR TREATING HEART FAILURE WITH STRESSCOPIN-LIKE PEPTIDES” (priority 2009, published 2011).
Where a SMILES comes first, the peptide text is derived from it. Where no end group is shown, it is not given here. Side-chain parts run from the residue outwards. The star is where a group is joined. acetamide = acetamide linker between the Cys residue and the PEG; Succinimide(1-Et,3-yl) = CCN1C(=O)CC(*)C1=O

What was measured:
human CRHR2 = molecular target: T1, human CRHR2 (Homo sapiens, UniProt Q13324); assay: cAMP assay, h-CRHR2 transfected SK-N-MC cells; assay type: cell-based; details: for EC50 / Log DR [M]: Table 13; for EC50: cysteine mutation, N-ethylmaleimide capping, pegylation, read-out: pA50 (converted); for Log DR [M]: h-SCP control pA50 minus test compound pA50 within the same assay batch
T1 construct: expressed in transfected cells
T1 sequence (Q13324 1-411): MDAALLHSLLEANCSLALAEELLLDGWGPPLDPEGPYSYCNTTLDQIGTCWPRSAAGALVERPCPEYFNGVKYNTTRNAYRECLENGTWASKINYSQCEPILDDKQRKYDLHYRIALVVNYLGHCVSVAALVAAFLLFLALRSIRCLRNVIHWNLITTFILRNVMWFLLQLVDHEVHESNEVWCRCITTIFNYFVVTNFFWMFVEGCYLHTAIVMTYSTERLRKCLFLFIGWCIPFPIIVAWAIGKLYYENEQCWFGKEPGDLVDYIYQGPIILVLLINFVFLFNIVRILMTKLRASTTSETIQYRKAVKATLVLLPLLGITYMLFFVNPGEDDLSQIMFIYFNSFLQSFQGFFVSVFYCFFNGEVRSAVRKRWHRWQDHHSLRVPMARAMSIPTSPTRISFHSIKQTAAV
In short: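 SK-N-MC cells stably expressing human CRHR2 were treated with peptides (1 pM to 1 μM) for 60 min at 37 °C in IBMX-containing medium, with 10 μM forskolin as positive control. Cells were lysed with 0.5 M HCl and cAMP measured by [125I]-cAMP competition flash plate. A50 came from Hill-equation fits, normalised to h-SCP maximum.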

HF dogs = assay: Single SC bolus injection in HF dogs; assay type: in vivo, dog
Method: After reaching a steady state plasma concentration, the heart rate remained fairly stable. […] The target plasma concentration of about 60 ng/mL is reached in about 2 hours and 10 minutes after the time point of injection, then leveling off at about 100 ng/mL after about 3, still maintaining its level at about 6 hours after injection. The stresscopin-relative concentration of 60 ng/mL and of 100 ng/mL of a SEQ ID NO:102 peptide is 600 pg/mL and 1000 pg/mL, respectively.

[1] = Nonclinical pharmacokinetics in rats; set-up: species or system rat; details: rat, in vivo; for % F (Bioavailability) / AUC0-∞ / Tmax: sc
Method: (§1) A sandwich immunoassay was developed using an affinity purified goat polyclonal antibody, specific to h-SCP that was pre-coated onto a microplate with integrated electrodes. h-SCP molecules present in the sample will bind to the capture polyclonal antibody coated on the plate. After washing away any unbound substances, a sulfo-tagged mouse monoclonal anti-h-SCP antibody was added. This conjugated antibody will bind to the h-SCP molecules captured on the microplate and the quantity of analyte was determined by electrochemiluminescence. The amount of signal generated is directly proportional to the h-SCP concentration in the sample or standard. The standard curve range is 3.125-1600 pg/mL with a quantifiable range from 10-800 pg/mL. A sample volume of 25 μL (in duplicate) is required for this assay. This immunoassay is specific for human and dog stresscopin and human urocortin III (h-UCN3). […] After completion of the analysis, based on a comparison of reference standards between the ELISA and HPLC method, a correction factor of 1.57 was applied to all bioanalytical data.
(§2) The nonclinical pharmacokinetics of h-SCP (SEQ ID NO:1) and pegylated stresscopin-like peptides were studied in rats, dogs, and cynomolgus monkeys (cyno). Nonclinical pharmacokinetic studies focused on characterization of IV infusion at pharmacologically relevant dose levels, supplemented with IV and SC bolus and toxicokinetic analysis.

[2] = Nonclinical pharmacokinetics in dogs; set-up: species or system dog; details: dog, in vivo
Method: as §1, §2

[3] = molecular target: T2, human corticotrophin releasing hormone receptor type 2 (CRHR2) (human) (UniProt Q13324); assay: cell-based or functional assay
T2 sequence (looked up): T1 sequence (Q13324 1-411)

[4] = molecular target: T3, human corticotrophin releasing hormone receptor type 1 (CRHR1) (human, UniProt P34998 24-415); assay: cell-based or functional assay
T3 sequence (looked up): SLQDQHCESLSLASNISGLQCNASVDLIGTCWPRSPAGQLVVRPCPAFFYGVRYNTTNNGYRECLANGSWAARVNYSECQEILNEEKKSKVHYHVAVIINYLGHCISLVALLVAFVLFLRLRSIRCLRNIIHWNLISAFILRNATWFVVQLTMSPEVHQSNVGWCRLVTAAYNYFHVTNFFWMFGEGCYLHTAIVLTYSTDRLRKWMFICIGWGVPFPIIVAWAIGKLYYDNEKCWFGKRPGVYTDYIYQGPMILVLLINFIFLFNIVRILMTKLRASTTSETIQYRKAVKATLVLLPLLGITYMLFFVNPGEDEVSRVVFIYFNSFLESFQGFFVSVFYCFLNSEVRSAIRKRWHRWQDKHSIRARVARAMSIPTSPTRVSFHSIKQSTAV

[5] = molecular target: T2, human corticotrophin releasing hormone receptor type 2 (CRHR2) (human); assay: radioligand competition against [125I]-anti-sauvagine-30, membranes of SK-N-MC cells with human CRHR2
[6] = molecular target: T3, human corticotrophin releasing hormone …; assay: radioligand competition against [125I]-(Tyr0)-sauvagine, CRHR1 assay, cell membranes
Method: Frozen cell pellets were defrosted on ice in 15 ml of assay buffer that was composed of 10 mM HEPES, 130 mM NaCl, 4.7 mM KCl, 5 mM MgCl₂, and 0.089 mM bacitracin at pH 7.2 and 21±3° Celsius. The solution was then homogenized with a Polytron tissue grinder at a setting of 10 and 7×3 s (Brinkmann Instruments, Westbury, N.Y.). The homogenate was centrifuged at 4° Celsius at 800×g for 5 min with the pellet being discarded. The supernatant was re-centrifuged at 26,892×g for 25 min at 4° Celsius with the final pellet being re-suspended in assay buffer. All binding assays were conducted in 96-well Multiscreen GF/B filter plates (Millipore, Billericay, Mass., U.S.A.) that were pre-soaked in assay buffer with 0.3% PEI for 1 hour. […]
The bound radioactivity was separated by filtration using a Multiscreen Resist manifold (Millipore Corp., Billerica, Mass., U.S.A). The filters were washed three times with ice-cold PBS at pH 7.5 and radioactivity retained on the filters was quantified by its liquid scintillation measured by a TopCount counter (Packard BioScience, Boston, Mass., U.S.A). […]
Data from individual competition curves were expressed as the percentage of specific [¹²⁵I]-anti-sauvagine-30 or)[¹²⁵I]-(Tyr⁰-sauvagine binding (B) within each experiment.

[7] = molecular target: T4, human corticotrophin releasing hormone receptor type 2 (CRHR2) (human, UniProt Q13324 1-411); assay: cell-based or functional assay
T4 sequence (looked up): T1 sequence (Q13324 1-411)

## TKFTLSLDVPTNIMNLLFNIAKAKNLRC(-IA-PEG MW20000)QA AANAH LMAQI-NH2 (TKFTLSLDVPTNIMNLLFNIAKAKNLRC([acetamide-PEG 20 kDa])QAAANAHLMAQI-NH2) [SEQ ID NO: 102]
Human CRHR2; 100 nM anti-sauvagine-30, maximal response constrained to 100%
  pA50 in the presence of anti-sauvagine-30: ~6.89
Human CRHR2; 10^(9.40-8.15)
  agonist potency ratio to stresscopin of SEQ ID NO:1 reduced by a factor: 17.78
Human CRHR2; Table 14
  nH: 1.05
  pA50: 8.15
Human CRHR2; Table 14, % of the maximum response obtained to h-SCP
  αmax: 111.1%
HF dogs; HF dogs, bolus SC injection 30 μg/kg
  heart rate: declined over the first few hours
HF dogs; HF dogs, bolus SC injection 30 μg/kg, up to 4 hours
  LVEF and CO performance: significantly increased
HF dogs; of 60 ng/mL of SEQ ID NO:102 peptide
  stresscopin-relative concentration: 600 pg/mL
HF dogs; of 100 ng/mL of SEQ ID NO:102 peptide
  stresscopin-relative concentration: 1000 pg/mL
[1]; iv, 15 ug/kg
  Vz (volume of distribution): 0.51 ± 0.023 L/kg
[1]; 15 ug/kg
  % F (Bioavailability): 36%
  AUC0-∞: 342 ± 107 ng·h/mL
  Tmax: 7 ± 1 h
[1]; 150 ug/kg
  % F (Bioavailability): 20%
  AUC0-∞: 1914 ± 464 ng·h/mL
  Tmax: 6.3 ± 1.8 h
[2]; iv, 15 ug/kg
  Vz (volume of distribution): 0.034 ± 0.007 L/kg
[2]; sc, 5 ug/kg
  % F (Bioavailability): 71%
  AUC0-∞: 3510 ± 270 ng·h/mL
  Cmax: 24.6 ± 2.6 ng/mL
  Tmax: 32 ± 8 h
[2]; sc, 15 ug/kg
  % F (Bioavailability): 41%
  AUC0-∞: 6089 ± 1808 ng·h/mL
  Tmax: 5 ± 1 h

## CC[C@H](C)[C@H](NC(=O)[C@H](CCC(N)=O)NC(=O)[C@H](C)NC(=O)[C@H](CCSC)NC(=O)[C@H](CC(C)C)NC(=O)[C@H](Cc1c[nH]cn1)NC(=O)[C@H](C)NC(=O)[C@H](CC(N)=O)NC(=O)[C@H](C)NC(=O)[C@H](C)NC(=O)[C@H](C)NC(=O)[C@H](CCC(N)=O)NC(=O)[C@H](C)NC(=O)[C@H](CCCNC(=N)N)NC(=O)[C@H](CC(C)C)NC(=O)[C@H](CSC1CC(=O)N(CC)C1=O)NC(=O)[C@H](CCCCN)NC(=O)[C@H](C)NC(=O)[C@H](CCCCN)NC(=O)[C@H](C)NC(=O)[C@@H](NC(=O)[C@H](CC(N)=O)NC(=O)[C@H](Cc1ccccc1)NC(=O)[C@H](CC(C)C)NC(=O)[C@H](CC(C)C)NC(=O)[C@H](CC(N)=O)NC(=O)[C@H](CCSC)NC(=O)[C@@H](NC(=O)[C@H](CC(N)=O)NC(=O)[C@@H](NC(=O)[C@@H]1CCCN1C(=O)[C@@H](NC(=O)[C@H](CC(=O)O)NC(=O)[C@H](CC(C)C)NC(=O)[C@H](CO)NC(=O)[C@H](CC(C)C)NC(=O)[C@@H](NC(=O)[C@H](Cc1ccccc1)NC(=O)[C@H](CCCCN)NC(=O)[C@@H](N)[C@@H](C)O)[C@@H](C)O)C(C)C)[C@@H](C)O)[C@@H](C)CC)[C@@H](C)CC)C(N)=O (stereo partly drawn) [SEQ ID NO: 49, TKFTLSLDVPTNIMNLLFNIAKAKC(-NES) LRAQA AANAH LMAQI-NH2] (H-TKFTLSLDVPTNIMNLLFNIAKAKC(Succinimide(1-Et,3-yl))LRAQAAANAHLMAQI-NH2; N-terminus assumed)
Human CRHR2
  EC50: 0.437 nM
  Log DR [M]: 0.11

## TKFTLSLDVPCNIMNLLFNIAKAKNLRAQAAANAHLMAQI-NH2 [SEQ ID NO: 12, TKFTLSLDVPCNIMNLLFNIAKAKNLRAQAAANAHLMAQI-NH2]
Human CRHR2
  EC50: 13.8 nM
  Log DR [M]: 1.72

## H-TKFTLSLDVPTNIMCLLFNIAKAKNLRAQAAANAHLMAQI-NH2 [SEQ ID NO: 16, TKFTLSLDVPTNIMCLLFNIAKAKNLRAQAAANAHLMAQI-NH2]
Human CRHR2
  EC50: 1.17 nM
  Log DR [M]: 0.76

## IVLSLDVPIGLLQILLEQARARAAREQATTNARILARV-NH2 [human urocortin 2]
[3]
  pA50: 9.51 -log10(M)
[4]
  pA50: 6.02 -log10(M)
[5]
  pKI: 7.74 -log10(M)

## FHLLRKMIEIEKQEKEKQQAANNRLLLDTI-NH2 (also called SV30; AS-30) [anti-sauvagine-30]
[3]
  pA2 (antagonism of the cAMP response to h-SCP): 7.82 -log10(M)
[6]
  pKI: 5.81 -log10(M)
[5]
  pKI: 7.78 -log10(M)

## KFTLSLDVPTNIMNLLFNIAKAKNLRAQAAANAHLMAQI-NH2 [Stresscopin-like peptide with shortened amino acid sequence, 39 aa, SEQ ID NO: 107]
[7]
  pA50: 9.25 -log10(M)

## TLSLDVPTNIMNLLFNIAKAKNLRAQAAANAHLMAQI-NH2 [Stresscopin-like peptide with shortened amino acid sequence, 37 aa, SEQ ID NO: 108]
[7]
  pA50: 8.49 -log10(M)

## LSLDVPTNIMNLLFNIAKAKNLRAQAAANAHLMAQI-NH2 [Stresscopin-like peptide with shortened amino acid sequence, 36 aa, SEQ ID NO: 109]
[7]
  pA50: 7.34 -log10(M)
